B1: Wnt-1: Partially purified conditioned media from stable fibroblast cell line engineered to secrete Wnt-1 ligand (protein)
chain: ANSSGRWWGIVNIASSTNLLTDSKSLQLVLEPSLQLLSRKQRRLIRQNPGILHSVSGGLQSAVRECKWQFRNRRWNCPTAPGPHLFGKIVNRGCRETAFIFAITSAGVTHSVARSCSEGSIESCTCDYRRRGPGGPDWHWGGCSDNIDFGRLFGREFVDSGEKGRDLRFLMNLHNNEAGRTTVFSEMRQECKCHGMSGSCTVRTCWMRLPTLRAVGDVLRDRFDGASRVLYGNRGSNRASRAELLRLEPEDPAHKPPSPHDLVYFEKSPNFCTYSGRLGTAGTAGRACNSSSPALDGCELLCCGRGHRTRTQRVTERCNCTFHWCCHVSCRNCTHTRVLHECL
modifications: left off: small tags and cut ends
B2: Wnt-5a: Partially purified conditioned media from stable fibroblast cell line engineered to secrete Wnt-5a ligand (protein)
chain: IIGAQPLCSQLAGLSQGQKKLCHLYQDHMQYIGEGAKTGIKECQYQFRHRRWNCSTVDNTSVFGRVMQIGSRETAFTYAVSAAGVVNAMSRACREGELSTCGCSRAARPKDLPRDWLWGGCGDNIDYGYRFAKEFVDARERERIHAKGSYESARILMNLHNNEAGRRTVYNLADVACKCHGVSGSCSLKTCWLQLADFRKVGDALKEKYDSAAAMRLNSRGKLVQVNSRFNSPTTQDLVYIDPSPDYCVRNESTGSLGTQGRLCNKTSEGMDGCELMCCGRGYDQFKTVQTERCHCKFHWCCYVKCKKCTEIVDQFVCK
modifications: left off: small tags and cut ends

Experiments:
Format in all cases: cell-based, rat
[1] = test system: ventral mesencephalic Nurr1+ neuronal precursors; experiment: Conversion of VM Nurr1+ precursors into Nurr1+/TH+ dopaminergic neurons (double immunostaining); details: VM cultures; control approximately 50%
Procedure: (§1) Ventral mesencephala and cerebral cortices from embryos E13.5-14.5 obtained from timed-mated Sprague-Dawley rats were dissected, mechanically dissociated and plated at a final density of 1×10^5 cells/cm2 on poly-D-lysine coated 12- or 24-well plates in a defined, serum-free medium (N2, consisting of a 1:1 mixture of F12 and DMEM containing insulin (10 ng/ml), transferrin (100 μg/ml), putrescine (100 μM), progesterone (20 nM), selenium (30 nM), glucose (6 mg/ml), and bovine serum albumin (1 mg/ml)). Purified Type 1 astrocytes were obtained from mixed glial cultures derived from the VM or CTX of P1 rats according to a standard protocol (Wagner et al., 1999). After shaking and replating into 12-well plates, astrocytes were grown to confluency in 15% fetal bovine serum-containing media and changed to N2 medium, at which time freshly dissected VM or CTX cells were plated on top of the astrocytes at a density of 1×10^5 cells/cm2. All factors were added once, at the initiation of culture, with the exception of 5-bromodeoxyuridine (BrdU), which was added 4-6 hours prior to fixation. Cultures were maintained in a humidified 5% CO2, 95% air incubator at 37° C. and fixed after given time periods with 4% paraformaldehyde for 45 minutes prior to immunocytochemical analysis.
B1A fibroblast lines were cotransfected with the mFz8CRD-IgG/pRK5 and the pIRES puro 2 (Clontech, BD Bioscience, Erembodegem, Belgium) plasmids, using Lipofectamine Plus reagent (Invitrogen, Lidingo, Sweden) according to the instruction of the manufacturer. Upon selection for puromycin resistance (1 μg/ml Sigma, Stockholm, Sweden), clones were isolated and expanded. A clone overexpressing Fz8CRD 700× (real time RT-PCR analysis) was identified. Harvesting and partial purification of Fz8CRD conditioned media were performed as described previously. In all the blocking experiments performed, the Fz8CRD and B1A control partial purified conditioned medias were used at a final concentration of 125-250 μg/ml. […]
Only clearly stained cells were counted as positive cells. […]

[2] = test system: VM cultures; experiment: TuJ1+ neurons and proliferating clusters, proportion dopaminergic, in VM cultures; details: for total number of TuJ1+ neurons: FIG. 3f
Procedure: as §1
(§2) Fixed cultures were incubated with one of the following antibodies, diluted appropriately in phosphate-buffered saline (PBS) containing 1% bovine serum albumin and 0.3% Triton-X 100: mouse anti-BrdU, 1:50 (DAKO, Denmark), mouse anti-β-tubulin, Type III (TuJ1), 1:250 (Sigma), mouse anti-TH, 1:1000 (Incstar, USA), rabbit anti-TH, 1:250 (PelFreeze); rabbit anti-Nurr1, 1:2000 (gift from Dr. T. Perlmann, Sweden), rabbit anti-Nurr1, 1:1000 (Santa Cruz, USA) or mouse anti-Nurr1, 1:250 (BD Transduction Laboratories, USA), rabbit anti Adh2 1:4000 (gift from Dr. R. Lindahl, South Carolina). Incubations were either carried out at 4° C. overnight, or at room temperature for 1 hour. Both processes yielded similar results. After washing, cultures were incubated for 1-3 hr with appropriate secondary antibodies (biotinylated 1:500; CY2-, FITC-, or rhodamine-coupled horse-anti-mouse IgG 1:100; or goat-anti-rabbit IgG 1:100; all from Vector, USA), in the same dilution buffer. Brightfield immunostaining was visualized with the Vector Laboratory ABC immunoperoxidase kit, using either NovaRed (red), or AEC (red), SG or 3-3′ dimaminobenzidine tetrahydrochloride (DAB 0.5 mg/ml)/nickel chloride (1.6 mg/ml) (gray/black), or VIP (violet) substrates. Double-staining was performed by sequential single staining as described. The order of staining was only critical for BrdU-double labeling, in which case the BrdU procedure was always performed second. […] Photos were acquired with a Zeiss Axioplan 100M microscope and collected with a Hamamatsu camera C4742-95 (with the QED imaging software).
Only clearly stained cells were counted as positive cells. Spheres were considered positive if they contained one or more positive cell. Quantitative immunocytochemical data on individual cells represent means and standard errors of counts obtained by a blinded observer from 10-20 non-overlapping fields (cells) or in the entire well (clusters), in each of 3-4 wells per condition from 3-4 independent experiments, unless stated otherwise. For each variable, initial statistical comparisons were performed by a global ANOVA, with multiple factors of dose, time point, treatment and/or region; if significant interactions between treatment and any other variable existed, data were further divided into separate times, doses or regions. Fisher's protected least significant difference was used post hoc to identify specific points at which the treatments differed from controls (or each other) only when significant interactions between factor treatment and other variables occurred. Significance for all tests was assumed at the level of p<0.05. […]

[3] = test system: E13.5 primary cultures from the cerebral cortex; experiment: Induction of TH in Nurr1+ E13.5 cerebral cortex primary cultures; details: for proportion of Nurr1 positive cortical cells that expressed TH: Wnt ligands or co-culture with P1 astrocytes
Procedure: as §1, §2
Only clearly stained cells were counted as positive cells. Spheres were considered positive if they contained one or more positive cell. Quantitative immunocytochemical data on individual cells represent means and standard errors of counts obtained by a blinded observer from 10-20 non-overlapping fields (cells) or in the entire well (clusters), in each of 3-4 wells per condition from 3-4 independent experiments, unless stated otherwise. […]

| Molecule | proportion of Nurr1 positive cells that expressed TH (Nurr1+/TH+) [1] [%] | proportion of VM clusters containing dopaminergic neurons ([2]; FIG. 3e) | total number of TuJ1+ neurons [2] | proportion of TH+ (dopaminergic) neurons ([2]; FIG. 3g) | proportion of Nurr1 positive cortical cells that expressed TH [3] | enrichment for dopaminergic clusters ([2]; FIG. 3e) | enrichment for dopaminergic neurons ([2]; FIG. 3g) | increase in number of proliferating clusters containing TuJ1+ cells ([2]; compared to control (FIG. 3d)) | increase in number of double Nurr1/TH+ cells compared to Wnt-1 ([3]; 3 days) [fold] | increase in number of double Nurr1/TH+ cells compared to control ([3]; 3 days) [fold] |
| --- | --- | --- | --- | --- | --- | --- | --- | --- | --- | --- |
| B1 | 70 | about 30% | increased | did not increase | significant increase |  |  |  |  |  |
| B2 | 90 |  | did not increase |  | significant increase | more than two | more than two | did not increase | > 4 | > 40 |
